Article PMC5070455 (Biophysics, 2012)

Biological target: the molecule itself
Test: negative-stain electron microscopy

B1: desmin (natural protein, chicken, UniProt P02542 1-464, looked up)
chain: MSQSYSSSQRVSSYRRTFGGGTSPVFPRASFGSRGSGSSVTSRVYQVSRTSAVPTLSTFRTTRVTPLRTYQSAYQGAGELLDFSLADAMNQEFLQTRTNEKVELQELNDRFANYIEKVRFLEQQNALMVAEVNRLRGKEPTRVAEMYEEELRELRRQVDALTGQRARVEVERDNLLDDLQKLKQRLQEEIQLKEEAENNLAAFRADVDAATLARIDLERRIESLQEEIAFLKKVHEEEIRELQAQLQEQHIQVEMDISKPDLTAALRDIRAQYESIAAKNIAEAEEWYKSKVSDLTQAANKNNDALRQAKQEMLEYRHQIQSYTCEIDALKGTNDSLMRQMREMEERFAGEAGGYQDTIARLEEEIRHLKDEMARHLREYQDLLNVKMALDVEIATYRKLLEGEENRISIPMHQTFASALNFRETSPDQRGSEVHTKKTVMIKTIETRDGEVVSEATQQQHEVL
  binding result: binds
